The test system of the data set is dCas9 (SpyCas9 D10A/H840A) (Streptococcus pyogenes). Put plainly: DNA binding assay. The following applies: not given in the material (Methods are in the supplement, not held).

What is called Kd is the free concentration of one partner at which half of the binding sites on the other are occupied at equilibrium, for simple one-to-one binding. High values mean lower affinity, low ones higher affinity. For crRNA:tracrRNA + 55-bp target dsDNA, the equilibrium dissociation constant (Kd) came to 4 nM.
